Measured values: the Immune Epitope Database (IEDB)

How the values were obtained:
HLA-A*02:01 [1] = test: IEDB peptide-MHC binding, purified MHC/competitive/radioactivity; ≥ and ≤ were set here for values at or beyond the usual limits of such assays; details: source organism: Vaccinia virus WR
HLA-A*02:01 [2] = test: IEDB peptide-MHC binding, cellular MHC/competitive/fluorescence; ≥ and ≤ were set here for values at or beyond the usual limits of such assays
[3] = source organism: Vaccinia virus WR

Sequence | IC50 (HLA-A*02:01 [2]; [3]) [µM] | also measured
MLYQLLEAV | 14.9 | IC50 (HLA-A*02:01 [1]): 0.0082 µM
IQGKNKRKRV | ≥ 70 | 
ETSFNDKQKV | ≥ 70 | 
LLTKSNNGT | 13.9 | 
CIRISMVISL | 6.22 | 
EVFNREYNNV | 13.2 | 
VTNKEGVKI | 57.4 | 
LVIVSDGPPT | ≥ 70 | 
AIIRQRNDEI | 17.4 | 
TTTSEVVDM | 10 | 
IAHLLEHLL | 14.1 | 
GVKIRTKIPL | 12.7 | 
VTKQDELQAA | 14.3 | 
YTVMVKINPT | 9.38 | 
DLFPKQTIQT | 12.9 | 
LIKLIEPVNA | 55.6 | 
ELMPIRTDTT | 11.7 | 
LTASGGKVLI | ≥ 70 | 
TTSDYQDSDV | 11.9 | 
PVLPICVRT | 7.3 | 
ATDPDADAI | 39.1 | 
MQRISGSNIV | 13 | 
DINSDNSNI | 24.8 | 
NAKLTSTET | 8.67 | 
IIPSSIPVST | 17.1 | 
DQYKFHKLL | 16 | 

Sequence | IC50 (HLA-A*02:01 [2]; [3]) [µM] | also measured
NVEEDLARNL | ≥ 70 | 
DIRTLLPIL | 37.6 | 
NAKCIEYVT | ≥ 70 | 
SVVQALTSL |  | IC50 (HLA-A*02:01 [2]; source organism: Mammarenavirus machupoense): 9.24 µM
IIYNANKLI | 17 | 
IMKTPGNTDA | 9.42 | 
DILANRDSTL | 34.5 | 
LQKFSFKIAI | ≥ 70 | 
SIRIKIDKL | 16.5 | 
FINDRMKKDI | ≥ 70 | 
GAIYKLGSSI | 36.6 | 
YIQETIRSDT | 39.3 | 
WLTAVEHIPT | 6.96 | 
EVVVFGEAV | 13.4 | 
WTVYLIKLI | 7.52 | 
YIIRRSGCRI | 43.1 | 
EINNELELV | 8.27 | 
IVDDDFISA | 11.5 | 
EVVANVIGL | 12.2 | 
LIAFSSGTVI | 7.63 | 
PTASSDSLQT | 16.7 | 
SVNKFKFGAA | ≥ 70 | 
ETSFIFIET | 8.82 | 
NQCMSANEA | 13.3 | 
CMSANEAAIT | 6.71 | 
KIDKLRQIVA | 32.4 | 

Sequence | IC50 (HLA-A*02:01 [2]; [3]) [µM] | also measured
STFSIGGVI | 23.5 | 
TIQESFIRFT | ≥ 70 | 
TIKISPGIA | 37.4 | 
PMNVDNLIM | 17.4 | 
CIEYVTLNA | 11.1 | 
KIKVTAASPM | ≥ 70 | 
AVNEEWLTA | 17.3 | 
TTSSREERVL | ≥ 70 | 
NIGKIIMSL | 7.04 | 
HLNPSRIRIT | ≥ 70 | 
PTELKETLL | ≥ 70 | 
ATVMNNLSEL | 11 | 
SISKSNAKCI | ≥ 70 | 
NISTIQESFI | ≥ 70 | 
MASLLYLIL | 9.14 | 
TACNNTIII | 11.3 | 
PVVFYRSGT | 15.4 | 
QQHPIVVLDA | 14.5 | 
LARNLGLVDI | ≥ 70 | 
TAASPMLYQL | ≥ 70 | 
ETVSTIDGRI | ≥ 70 | 
QQKKCKYCI | 38.8 | 
PVSKVKSCL | 14.3 | 
ELQKFSFKIA | ≥ 70 | 
GIRVKHSFSA | 6.87 | 
YASIINRDII | 7.11 | 

Sequence | IC50 (HLA-A*02:01 [2]; [3]) [µM] | also measured
DTQQHPIVV | 13.9 | 
VVELEPSLAT | ≥ 70 | 
GAIKCEGLDV | 49 | 
DMPSLSNGLI | 43 | 
IVRDMLVNRM | 14.4 | 
LTDSLSSQMT | 11.9 | 
MQRISGSNI | 9.8 | 
RIVVYNPST | 6.05 | 
KAMCNTRDT | 51.6 | 
AASSTHRKVA | ≥ 70 | 
PTMKIFYKHI | ≥ 70 | 
IAHLLEHLLI | 15.7 | 
GIVLSNTSTA | 13.1 | 
KLIIDREVV | 6.63 | 
LTAVEHIPTM | 7.83 | 
TIIERSKKFI | 45.1 | 
IATYIDALA | 12.4 | 
IVLSNTSTA | 16.9 | 
PAAMYQYIFL | 5.57 | 
FASGNSIDDI | 9.21 | 
IIRQRNDEI | 52.8 | 
DMPSLSNGL | 47.2 | 
ETDRENAII | 67.3 | 
VAVAAASST | 13.5 | 
STVASAQIHL | 14.2 | 
ITFMQALQLL |  | IC50 (HLA-A*02:01 [2]; source organism: Influenza A virus): 7.71 µM

Sequence | IC50 (HLA-A*02:01 [2]; [3]) [µM] | also measured
SQSERDNYIT | ≥ 70 | 
STLPNKSDV | ≥ 70 | 
TAVNEEWLTA | 25 | 
KTFMLPKQDI | 33.6 | 
QTPIQSDAGM | 34.3 | 
LQFIVFLLL |  | IC50 (HLA-A*02:01 [2]; source organism: Mammarenavirus whitewaterense): 51.6 µM
KTKYYKFDYI | 51.5 | 
GILSNYVKT | ≥ 70 | 
DMIHNVIDDV | 19.8 | 
PTLDNILGIL | 63.7 | 
IVIYPNFSKA | 9.76 | 
SILRSIEGEL | 5.85 | 
SVDCNKELM | 11.2 | 
VIYPNFSKA | 14.2 | 
IQQLYEFRKV | 8.74 | 
AASKQQMLM | ≥ 70 | 
NTSLEIEFT | ≥ 70 | 
DIVGLDLENL | 16.6 | 
YVGSYASNGI | 15.2 | 
TVMNNLSELT | 11.9 | 
LTVSFIDET | ≥ 70 | 
EQRSTAYEI | 8.92 | 
LLVATDPDA | 17.4 | 
ATDPDADAIA | ≥ 70 | 
EATYHIIIV | 11 | 
FVFYKPKHST | ≥ 70 | 

Sequence | IC50 (HLA-A*02:01 [2]; [3]) [µM] | also measured
DIPVNNNIVL | ≥ 70 | 
DACKKILSA | 14.4 | 
ELTASGGKV | 49.8 | 
KTFIIHKNL | 9.47 | 
TIRVTSNGL | 23.5 | 
FINKLNGAM | 57.8 | 
ILSIVGFRPT | 38.1 | 
VIFLISVIV | 13.6 | 
TTSEVVDML | 6.04 | 
LQTIEIIFT | 9.68 | 
EILTVKRPLL | ≥ 70 | 
IQESFIRFT | 36.2 | 
IVRCCAGDDI | 10.7 | 
PVTEDDYKFL | 26.7 | 
ELTTLSRHI | 18.6 | 
NVTNPFDFM | 7.94 | 
ATLGPANRI | 17 | 
AINIALIAV |  | IC50 (HLA-A*02:01 [2]; source organism: Mammarenavirus brazilense): 8.3 µM
PIKFIAEFL | 8.24 | 
SLSKRERQL | 5.77 | 
DAFSREYSM | 7.57 | 
SVVTLLCVL | 14.7 | 
EIPTRTLDTA | 59 | 
LQKVLHVTDT | ≥ 70 | 
IVTLQKVLHV | 32.9 | 
GTETKITFA | 60.6 | 

Sequence | IC50 (HLA-A*02:01 [2]; [3]) [µM] | also measured
TLPSIFLIIT | 9.73 | 
EAAITDAAVA | 26.3 | 
STILNSIDI | 7.49 | 
FVKRLGPGT | 39.7 | 
DISMSLYKDL | 9.88 | 
STHRKVASST | 51.5 | 
EIFIRYGDA | 30.5 | 
SVFAASKQQM | ≥ 70 | 
RIVVYNPSTM | ≥ 70 | 
DMLVNRMQRI | 11.7 | 
MIVLPNKVRI | ≥ 70 | 
VANVVNHVLT | ≥ 70 | 
ILYKVRKNFT | 7.65 | 
EVFINDNGI | ≥ 70 | 
CTVPTMNNA | 16.1 | 
EAVKDKNWT | 38.7 | 
IVALTIMGVI | 5.77 | 
VISLLSMITM | 10.8 | 
NVILSPPINA | 7.25 | 
MIVLITMLSI | 6.16 | 
GIAHLLEHLL | 7.4 | 
DTFVSSVREV | 5.08 | 
IIIVALTIM | 9.64 | 
TANVVFRYM | 19.3 | 
SVEPYTSNI | 17.3 | 
IVVYNPSTM | 56.2 | 

Sequence | IC50 (HLA-A*02:01 [2]; [3]) [µM] | also measured
ETIGNQLYLT | 14.6 | 
IVMTPSPFYT | 6.46 | 
KTLDFKSKKV | 52.8 | 
DTQQHPIVVL | ≥ 70 | 
PVNNNIVLHT | 35.8 | 
DLSKLSKDV | 6.36 | 
DMLNIMNKL | 5.12 | 
EVFHCMDILT | 14.8 | 
KLIIDREVVA | 15.8 | 
LIRPKILSM | ≥ 70 | 
SATESDAIRT | ≥ 70 | 
AVEHIPTMKI | 14.3 | 
EQTSVFSATV | 28.6 | 
STAVNEEWLT | 25.4 | 
SADDIQAIM | 12.1 | 
IVARRKDQT | ≥ 70 | 
RTNRNELFQL | 31.2 | 
SLKRNAEGI | ≥ 70 | 
CVVYPGNGFV | 24.9 | 
RIKIDKLRQI | ≥ 70 | 
LTGSQYYFSM | 5.06 | 
LVATDPDADA | ≥ 70 | 
SISIKLTDSL | 6.24 | 
TVSTIDGRIV | ≥ 70 | 
VARRKDQTA | 37.7 | 
QQPIKKDCMV | 18.5 | 

Sequence | IC50 (HLA-A*02:01 [2]; [3]) [µM] | also measured
VTLNAGNIDI | 12.9 | 
MTENVEEDL | 22.1 | 
GTLDFFKQT | 49.5 | 
SIPKETNELT | ≥ 70 | 
GIPITIRVT | 18.7 | 
DLENNLVKL | 16.2 | 
DALAKNASEL | 61.8 | 
NIHNHMIKV | 6.46 | 
ILKPRIDKTM | 49.3 | 
TVTNLISET | 31.1 | 
AIMFKDDNII | 43.8 | 
MIKVGNCDET | ≥ 70 | 
KQQKKCKYCI | 56.4 | 
VATDPDADAI | ≥ 70 | 
EVFHCMDIL | 12 | 
FTNLLSKNT | 13.1 | 
NTIDQTANVV | 6.56 | 
RQLAKAIIT | 9.8 | 
TTLSRHIFM | 6.42 | 
STSITVNEV | 12.6 | 
AAITDAAVAV | 5.31 | 
HIDYNEDMIT | 51.4 | 
MIKERRQITM | 24.9 | 
PLITLTNVV | 6.67 | 
DLEKYFYGEI | ≥ 70 | 
DAYNIADAA | ≥ 70 | 

Sequence | IC50 (HLA-A*02:01 [2]; [3]) [µM] | also measured
IVLPNKVRI | 35.1 | 
IVISPMGKLT | 52.6 | 
DLSKLSKDVV | ≥ 70 | 
LTTLSRHIFM | 5.83 | 
ILHRLHEILT | 12.6 | 
EIEEHMRQT | 39 | 
DIEPDLENNL | 54.4 | 
IAFSSGTVI | 43.9 | 
FIVISPMGKL | 20 | 
LVNLIQAKT | 44.2 | 
VTLNASQYA | 5.01 | 
QQKCDMPSL | 25 | 
VTINNLKMM | 9.06 | 
ELKTQSPDVL | 61 | 
VISLLSMIT | 5 | 
KVRIFINDRM | 39.7 | 
ELEPSLATFI | 11.2 | 
VTLQKVLHVT | 35.9 | 
GAMVEYVST | 24.8 | 
NTFPNITLKI | 10.1 | 
